Laboratory results: US20120213794A1 (published 2012)

Legend:
human PCSK9 [1] = target: T1, human PCSK9 (human, UniProt Q8NBP7 31-692); assay: cell-based or functional assay
T1 sequence (Q8NBP7 31-692 limits assumed): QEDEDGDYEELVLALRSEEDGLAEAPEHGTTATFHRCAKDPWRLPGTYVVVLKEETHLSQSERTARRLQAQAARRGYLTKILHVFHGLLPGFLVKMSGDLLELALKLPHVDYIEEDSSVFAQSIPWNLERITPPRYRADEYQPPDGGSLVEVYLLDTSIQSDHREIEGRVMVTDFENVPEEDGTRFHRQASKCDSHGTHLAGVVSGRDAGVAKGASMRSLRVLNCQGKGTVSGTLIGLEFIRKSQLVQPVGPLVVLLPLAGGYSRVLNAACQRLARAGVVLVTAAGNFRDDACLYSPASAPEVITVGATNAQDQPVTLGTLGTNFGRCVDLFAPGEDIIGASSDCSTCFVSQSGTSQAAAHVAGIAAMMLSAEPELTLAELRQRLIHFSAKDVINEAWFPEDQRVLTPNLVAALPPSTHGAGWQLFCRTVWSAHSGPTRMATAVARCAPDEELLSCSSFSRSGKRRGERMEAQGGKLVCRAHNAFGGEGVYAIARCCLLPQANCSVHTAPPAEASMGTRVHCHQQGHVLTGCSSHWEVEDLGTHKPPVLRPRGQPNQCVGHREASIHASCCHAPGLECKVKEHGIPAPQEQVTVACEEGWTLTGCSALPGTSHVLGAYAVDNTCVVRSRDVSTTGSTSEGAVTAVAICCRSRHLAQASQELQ

rhesus PCSK9 [2] = target: rhesus PCSK9 (rhesus, UniProt A8T666 31-692, limits assumed); assay: cell-based or functional assay
murine PCSK9 = murine PCSK9 (mouse, UniProt Q80W65 35-694, limits assumed); assay: cell-based or functional assay
human PCSK9 [3] = target: T2, human PCSK9 (human, UniProt Q8NBP7 31-692); assay: Biacore (SPR), IgG2 captured, PCSK9 as analyte
T2 construct: also called hPCSK9
T2 sequence (Q8NBP7 31-692 limits assumed): as above

Rhesus PCSK9 [4] = target: T3, Rhesus PCSK9 (rhesus, UniProt A8T666 31-692, limits assumed); assay: Biacore (SPR), IgG2 captured, PCSK9 as analyte
T3 construct: also called rhPCSK9

Mouse PCSK9 = target: T4, Mouse PCSK9 (mouse, UniProt Q80W65 35-694, limits assumed); assay: Biacore (SPR), IgG2 captured, PCSK9 as analyte
T4 construct: Column head prints 'Mouse 9'; also called Mouse 9; mPCSK9

human PCSK9 [5] = target: T1, human PCSK9; assay: cell-based or functional assay; remark: listed apart in the source
human PCSK9 [6] = target: T5, human PCSK9 (human, UniProt Q8NBP7 31-692); assay: SPR (Biacore), IgG captured by anti-human IgG, PCSK9 injected at 3.75-60 nM
T5 construct: Secreted PCSK9 is autocleaved into prodomain and mature chain, and a His-tag is named for the HEK293 constructs; also called hPCSK9; proprotein convertase subtilisin-kexin type 9
Description: The affinities of those IgG molecules were also measured by Biacore assay. Briefly, anti-human IgG monoclonal antibody form Human Antibody Capture Kit provided by Biacore was immobilized on CM5 chips at level of 8000 to 10000 RU. The IgG samples at concentration of ˜0.4 μg/ml was injected onto a sensor chip for 2 minutes at a flow rate of 20 μl/min, then PCSK9 proteins at 5 concentrations (3.75 to 60 nM) were injected onto an IgG captured flow cell for binding kinetic analysis. After each round injection, the sensor chip surface was regenerated by 30 second injection of 3M Magnesium Chloride.
T5 sequence (Q8NBP7 31-692 limits assumed): as above

Sequence of rhesus PCSK9 (A8T666 31-692 limits assumed): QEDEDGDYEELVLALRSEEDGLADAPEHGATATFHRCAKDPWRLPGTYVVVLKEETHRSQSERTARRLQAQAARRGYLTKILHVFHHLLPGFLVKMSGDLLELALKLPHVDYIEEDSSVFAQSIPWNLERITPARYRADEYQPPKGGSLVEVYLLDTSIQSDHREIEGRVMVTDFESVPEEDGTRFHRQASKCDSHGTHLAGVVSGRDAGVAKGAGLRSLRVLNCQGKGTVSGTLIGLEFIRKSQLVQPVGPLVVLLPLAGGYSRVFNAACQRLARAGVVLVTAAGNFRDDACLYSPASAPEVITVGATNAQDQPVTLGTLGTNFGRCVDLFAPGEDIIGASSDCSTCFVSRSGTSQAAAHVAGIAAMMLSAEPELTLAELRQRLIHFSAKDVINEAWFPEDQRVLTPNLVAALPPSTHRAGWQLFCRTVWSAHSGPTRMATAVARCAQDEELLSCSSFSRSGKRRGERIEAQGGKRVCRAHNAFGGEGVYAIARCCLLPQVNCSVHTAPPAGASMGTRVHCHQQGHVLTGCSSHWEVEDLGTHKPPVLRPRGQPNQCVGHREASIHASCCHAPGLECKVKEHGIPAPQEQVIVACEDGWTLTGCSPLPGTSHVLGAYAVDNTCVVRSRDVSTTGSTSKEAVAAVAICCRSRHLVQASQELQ
T3 sequence (A8T666 31-692 limits assumed): as above
Sequence of murine PCSK9 (Q80W65 35-694 limits assumed): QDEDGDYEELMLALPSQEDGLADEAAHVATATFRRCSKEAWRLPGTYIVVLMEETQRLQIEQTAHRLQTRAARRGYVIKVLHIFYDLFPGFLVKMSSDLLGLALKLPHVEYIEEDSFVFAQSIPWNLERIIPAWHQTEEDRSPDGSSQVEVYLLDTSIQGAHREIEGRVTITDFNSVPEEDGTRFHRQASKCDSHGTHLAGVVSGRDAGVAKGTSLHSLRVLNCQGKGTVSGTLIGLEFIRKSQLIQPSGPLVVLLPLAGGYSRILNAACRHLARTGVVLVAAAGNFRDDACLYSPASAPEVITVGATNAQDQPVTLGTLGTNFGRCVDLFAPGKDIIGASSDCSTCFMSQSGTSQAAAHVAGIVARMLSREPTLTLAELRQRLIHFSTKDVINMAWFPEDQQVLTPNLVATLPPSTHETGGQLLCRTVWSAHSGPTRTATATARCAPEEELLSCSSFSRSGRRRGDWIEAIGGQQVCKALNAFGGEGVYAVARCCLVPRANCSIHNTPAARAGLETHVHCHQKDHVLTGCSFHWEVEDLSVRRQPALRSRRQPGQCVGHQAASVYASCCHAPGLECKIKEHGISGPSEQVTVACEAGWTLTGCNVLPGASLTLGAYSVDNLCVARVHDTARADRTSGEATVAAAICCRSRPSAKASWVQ
T4 sequence (Q80W65 35-694 limits assumed): as above

Binder | IgG2 IC50 (nM), inhibition of PCSK9 (LDL uptake assay) (human PCSK9 [1]) [nM] | IgG2 IC50 (nM), inhibition of PCSK9 (LDL uptake assay) (rhesus PCSK9 [2]) [nM] | IgG2 IC50 (nM), inhibition of PCSK9 (LDL uptake assay) (murine PCSK9) [nM] | other results
AX212 IgG2 (antibody, V domains shown) VH: QVQLLESGGGLVQPGGSLRLSCKASGYTFSSYSFSWVRQAPGKGLEWIGYIDPGSGGTKYNQKFQGKATISRDNSKNTLYLQMNSLRAEDTAVYYCARQRVGYSLDYWGQGTLVTVSS VL: EIVLTQSPATLSLSPGERATITCRASQYVGSYLNWYQQKPGQAPRLLIYDASNRATGIPARFSGSGSGTDFTLTISSLEPEDFAVYYCQVWDSSPPVVFGGGTKVEIK | 9.5 | 4.7 | 7.3 | 
AX114 IgG2 (antibody, V domains shown) VH: EVQLLESGGGLVQPGGSLRLSCKASGYTFSSYGMYWVRQAPGKGLEWIGWIDPGSGGTKYNEKFKGKATISRDNSKNTLYLQMNSLRAEDTAVYYCARERYGYYFDYWGQGTLVTVSS VL: EIVLTQSPATLSLSPGERATITCRASQYVGTYLNWYQQKPGQAPRLLIYDASNRATGIPARFSGSGSGTDFTLTISSLEPEDFAVYYCQVWDSSPPVAFGGGTKVEIK [AX114 IgG2, listing 1 of 2 here] | 36.6 | 14.4 | 27.4 | 
AX114 IgG2 (antibody, V domains shown) VH: EVQLLESGGGLVQPGGSLRLSCKASGYTFSSYGMYWVRQAPGKGLEWIGWIDPGSGGTKYNEKFKGKATISRDNSKNTLYLQMNSLRAEDTAVYYCARERYGYYFDYWGQGTLVTVSS VL: EIVLTQSPATLSLSPGERATITCRASQYVGTYLNWYQQKPGQAPRLLIYDASNRATGIPARFSGSGSGTDFTLTISSLEPEDFAVYYCQVWDSSPPVAFGGGTKVEIK [AX114 IgG2, listing 2 of 2 here] |  |  |  | Kd (human PCSK9 [3]): 24 nM; Kd (Rhesus PCSK9 [4]): 11.6 nM; Kd (Mouse PCSK9): 11.2 nM
AX211 Fab (Fab, V domains shown) VH: QVQLLESGGGLVQPGGSLRLSCKASGYTFSRQGFTWVRQAPGKGLEWIGWIDPGNGGTRYNEKFKGKATISRDNSKNTLYLQMNSLRAEDTAVYYCARYRVGYSLDYWGQGTLVTVSS VL: EIVLTQSPATLSLSPGERATITCRASQYVGSYLNWYQQKPGQAPRLLIYDASNRATGIPARFSGSGSGTDFTLTISSLEPEDFAVYYCQVWDSSPPVVFGGGTKVEIK |  |  |  | Fab IC50 (nM), inhibition of PCSK9 on LDL uptake (human PCSK9 [5]): 12.6 nM
AX137 IgG2 (antibody, V domains shown) VH: EVQLLESGGGLVQPGGSLRLSCKASGYTFSSYGMYWVRQAPGKGLEWIGWIDPGSGGTKYNEKFKGKATISRDNSKNTLYLQMNSLRAEDTAVYYCARERYGYYFDYWGQGTLVTVSS VL: EIVLTQSPATLSLSPGERATITCRASQYIGSYLNWYQQKPGQAPRLLIYDASNRATGIPARFSGSGSGTDFTLTISSLEPEDFAVYYCQAWDSSPPVVFGGGTKVEIK | 9.8 | 10 | 5.3 | 
AX210 IgG2 (antibody, V domains shown) VH: QVQLLESGGGLVQPGGSLRLSCKASGYTFSSYSIYWVRQAPGKGLEWIGWIDPGNGGTRYNQKFQSKATISRDNSKNTLYLQMNSLRAEDTAVYYCARARVGYSLDYWGQGTLVTVSS VL: EIVLTQSPATLSLSPGERATITCRASQYVGSYLNWYQQKPGQAPRLLIYDASNRATGIPARFSGSGSGTDFTLTISSLEPEDFAVYYCQVWDSSPPVVFGGGTKVEIK [AX210 IgG2, listing 1 of 2 here] |  |  |  | Kd (human PCSK9 [3]): 2.64 nM; Kd (Rhesus PCSK9 [4]): 0.944 nM; Kd (Mouse PCSK9): 3.6 nM
AX210 IgG2 (antibody, V domains shown) VH: QVQLLESGGGLVQPGGSLRLSCKASGYTFSSYSIYWVRQAPGKGLEWIGWIDPGNGGTRYNQKFQSKATISRDNSKNTLYLQMNSLRAEDTAVYYCARARVGYSLDYWGQGTLVTVSS VL: EIVLTQSPATLSLSPGERATITCRASQYVGSYLNWYQQKPGQAPRLLIYDASNRATGIPARFSGSGSGTDFTLTISSLEPEDFAVYYCQVWDSSPPVVFGGGTKVEIK [AX210 IgG2, listing 2 of 2 here] | 6.5 | 9.7 | 15.9 | 
AX132 IgG2 (antibody) heavy: EVQLLESGGGLVQPGGSLRLSCKASGYTFSSYGMYWVRQAPGKGLEWIGWIDPGSGGTKYNEKFKGKATISRDNSKNTLYLQMNSLRAEDTAVYYCARERYGYYFDYWGQGTLVTVSSASTKGPSVFPLAPCSRSTSESTAALGCLVKDYFPEPVTVSWNSGALTSGVHTFPAVLQSSGLYSLSSVVTVPSSNFGTQTYTCNVDHKPSNTKVDKTVERKCCVECPPCPAPPVAGPSVFLFPPKPKDTLMISRTPEVTCVVVDVSHEDPEVQFNWYVDGVEVHNAKTKPREEQFNSTFRVVSVLTVVHQDWLNGKEYKCKVSNKGLPAPIEKTISKTKGQPREPQVYTLPPSREEMTKNQVSLTCLVKGFYPSDIAVEWESNGQPENNYKTTPPMLDSDGSFFLYSKLTVDKSRWQQGNVFSCSVMHEALHNHYTQKSLSLSPGK VL: EIVLTQSPATLSLSPGERATITCRASQYVGSYLNWYQQKPGQAPRLLIYDASNRATGIPARFSGSGSGTDFTLTISSLEPEDFAVYYCQVWDSSPPVVFGGGTKVEIK | 8.9 | 11.5 | 9.4 | 
AX211 IgG2 (antibody, V domains shown) VH: QVQLLESGGGLVQPGGSLRLSCKASGYTFSRQGFTWVRQAPGKGLEWIGWIDPGNGGTRYNEKFKGKATISRDNSKNTLYLQMNSLRAEDTAVYYCARYRVGYSLDYWGQGTLVTVSS VL: EIVLTQSPATLSLSPGERATITCRASQYVGSYLNWYQQKPGQAPRLLIYDASNRATGIPARFSGSGSGTDFTLTISSLEPEDFAVYYCQVWDSSPPVVFGGGTKVEIK | 7.5 | 4.4 | 11.1 | 
AX212 Fab (Fab, V domains shown) VH: QVQLLESGGGLVQPGGSLRLSCKASGYTFSSYSFSWVRQAPGKGLEWIGYIDPGSGGTKYNQKFQGKATISRDNSKNTLYLQMNSLRAEDTAVYYCARQRVGYSLDYWGQGTLVTVSS VL: EIVLTQSPATLSLSPGERATITCRASQYVGSYLNWYQQKPGQAPRLLIYDASNRATGIPARFSGSGSGTDFTLTISSLEPEDFAVYYCQVWDSSPPVVFGGGTKVEIK |  |  |  | Fab IC50 (nM), inhibition of PCSK9 on LDL uptake (human PCSK9 [5]): 13.8 nM
AX210 Fab (Fab, V domains shown) VH: QVQLLESGGGLVQPGGSLRLSCKASGYTFSSYSIYWVRQAPGKGLEWIGWIDPGNGGTRYNQKFQSKATISRDNSKNTLYLQMNSLRAEDTAVYYCARARVGYSLDYWGQGTLVTVSS VL: EIVLTQSPATLSLSPGERATITCRASQYVGSYLNWYQQKPGQAPRLLIYDASNRATGIPARFSGSGSGTDFTLTISSLEPEDFAVYYCQVWDSSPPVVFGGGTKVEIK |  |  |  | Fab IC50 (nM), inhibition of PCSK9 on LDL uptake (human PCSK9 [5]): 26.8 nM
AX212 IgG (antibody, V domains shown, Purified IgG) VH: QVQLLESGGGLVQPGGSLRLSCKASGYTFSSYSFSWVRQAPGKGLEWIGYIDPGSGGTKYNQKFQGKATISRDNSKNTLYLQMNSLRAEDTAVYYCARQRVGYSLDYWGQGTLVTVSS VL: EIVLTQSPATLSLSPGERATITCRASQYVGSYLNWYQQKPGQAPRLLIYDASNRATGIPARFSGSGSGTDFTLTISSLEPEDFAVYYCQVWDSSPPVVFGGGTKVEIK |  |  |  | Kd (human PCSK9 [6]): 2.12 nM; koff (human PCSK9 [6]): 0.000324 s⁻¹; kon (human PCSK9 [6]): 153000 M⁻¹ s⁻¹
AX213 IgG2 (antibody, V domains shown) VH: EVQLLESGGGLVQPGGSLRLSCKASGYTFSRYGINWVRQAPGKGLEWIGRIDPGNGGTRYNEKFKGKATISRDNSKNTLYLQMNSLRAEDTAVYYCARANDGYSFDYWGQGTLVTVSS VL: EIVLTQSPATLSLSPGERATITCRASQYVGSYLNWYQQKPGQAPRLLIYDASNRATGIPARFSGSGSGTDFTLTISSLEPEDFAVYYCQVWDSSPPVVFGGGTKVEIKR [AX213 IgG2, listing 1 of 2 here] | 11.1 | 10.2 | 7 | 
AX213 Fab (Fab, V domains shown) VH: QVQLLESGGGLVQPGGSLRLSCKASGYTFSRYGINWVRQAPGKGLEWIGRIDPGNGGTRYNEKFKGKATISRDNSKNTLYLQMNSLRAEDTAVYYCARANDGYSFDYWGQGTLVTVSS VL: EIVLTQSPATLSLSPGERATITCRASQYVGSYLNWYQQKPGQAPRLLIYDASNRATGIPARFSGSGSGTDFTLTISSLEPEDFAVYYCQVWDSSPPVVFGGGTKVEIKR |  |  |  | Fab IC50 (nM), inhibition of PCSK9 on LDL uptake (human PCSK9 [5]): 14.7 nM
AX213 IgG (antibody, V domains shown) VH: EVQLLESGGGLVQPGGSLRLSCKASGYTFSRYGINWVRQAPGKGLEWIGRIDPGNGGTRYNEKFKGKATISRDNSKNTLYLQMNSLRAEDTAVYYCARANDGYSFDYWGQGTLVTVSS VL: EIVLTQSPATLSLSPGERATITCRASQYVGSYLNWYQQKPGQAPRLLIYDASNRATGIPARFSGSGSGTDFTLTISSLEPEDFAVYYCQVWDSSPPVVFGGGTKVEIKR |  |  |  | Kd (human PCSK9 [6]): 2.07 nM; koff (human PCSK9 [6]): 0.00073 s⁻¹; kon (human PCSK9 [6]): 353000 M⁻¹ s⁻¹
AX213 IgG2 (antibody, V domains shown) VH: EVQLLESGGGLVQPGGSLRLSCKASGYTFSRYGINWVRQAPGKGLEWIGRIDPGNGGTRYNEKFKGKATISRDNSKNTLYLQMNSLRAEDTAVYYCARANDGYSFDYWGQGTLVTVSS VL: EIVLTQSPATLSLSPGERATITCRASQYVGSYLNWYQQKPGQAPRLLIYDASNRATGIPARFSGSGSGTDFTLTISSLEPEDFAVYYCQVWDSSPPVVFGGGTKVEIKR [AX213 IgG2, listing 2 of 2 here] |  |  |  | Kd (human PCSK9 [3]): 2.07 nM; Kd (Rhesus PCSK9 [4]): 1.89 nM; Kd (Mouse PCSK9): 3.25 nM
